We go through 9 molecules from patent US7592163B2 (The Board of Trustees of the University of Illinois, priority 2004, dated 2009).

One data set has as its target T1, N. crassa XR (Neurospora crassa, UniProt Q7SD67).
T1 sequence (Q7SD67 1-322): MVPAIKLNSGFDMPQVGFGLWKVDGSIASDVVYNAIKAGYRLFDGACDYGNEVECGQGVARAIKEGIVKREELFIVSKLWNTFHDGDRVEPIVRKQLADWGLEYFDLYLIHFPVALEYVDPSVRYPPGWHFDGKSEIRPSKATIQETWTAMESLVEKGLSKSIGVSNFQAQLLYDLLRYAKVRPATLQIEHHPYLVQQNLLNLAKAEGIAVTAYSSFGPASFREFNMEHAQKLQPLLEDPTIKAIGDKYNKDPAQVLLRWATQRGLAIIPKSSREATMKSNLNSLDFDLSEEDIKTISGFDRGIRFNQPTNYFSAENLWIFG
The data set is described as follows: Kinetic analysis of N. crassa XR: initial rates, NAD(P)H consumption at 340 nm, with cofactors and sugar substrates. It counts as biochemical. The settings on record: for fold difference in catalytic efficiency (kcat/KM) between NADPH and NADH: NADPH favoured over NADH; for kcat: xylose reduction with the named coenzyme, 25° C., 50 mM MOPS pH 6.3; for acts as substrate for N. crassa XR: NADPH as the cofactor. As for the experimental part:
Michaelis-Menten constants (KM) were determined for both cofactors as well as for xylose with either cofactor. The maximum turnover number (kcat) was also determined with both cofactors. […] Xylose concentrations were varied from 10 to 250 mM while either cofactor concentration was held at 160 μM.
Analysis of substrate specificity.
Kinetic Analysis. […] All initial rate assays were carried out at 25° C. in 50 mM MOPS pH 6.3 using a Varian Cary 100 Bio UV-visible spectrophotometer unless otherwise noted. The reaction was initiated by addition of 0.1-1 μg of XR. […] The data were then converted to turnover number and fitted by non-linear regression analysis to the Michaelis-Menten equation using Origin 5.0. […] All assays were performed in duplicate or triplicate at least two times. The kinetic data presented represent averages of statistically relevant measurements and with their associated standard deviations.

Substrate in data set [1]: OC1OC[C@@H](O)[C@@H](O)[C@H]1O
The data set is described as above. The settings on record: other: KM of the sugar substrate, NADPH as cofactor, 25° C., 50 mM MOPS pH 6.3. It counts as biochemical, Neurospora crassa.

Substrate in data set [2]: OC1OC[C@@H](O)[C@H](O)[C@H]1O
Described as above. It counts as biochemical, Neurospora crassa. The settings on record: other: KM of the sugar substrate, NADPH as cofactor, 25° C., 50 mM MOPS pH 6.3.

Substrate in data set [3]: OC1OC[C@H](O)[C@H](O)[C@H]1O
The data set is described as above. It counts as biochemical, Neurospora crassa. The settings on record: other: KM of the sugar substrate, NADPH as cofactor, 25° C., 50 mM MOPS pH 6.3.

For data set [4] the following is noted: literature, cited from earlier work; for kcat / Km: with NADPH as cofactor; for Km: read-out: KM, Xylose.

Take “Nicotinamide adenine dinucleotide reduced [NADH]”: on N. crassa XR, the “fold difference in catalytic efficiency (kcat/KM) between NADPH and NADH” value is on record as 100 fold; the kcat was determined as 5.17 ± 0.167 s⁻¹.
For `O=C[C@@H](O)[C@H](O)[C@H](O)CO` [D-arabinose], the “acts as substrate for N. crassa XR” value at N. crassa XR is “did not act as substrates”; at N. crassa XR (listed as D-arabinos), “activity”.
Consider `O=C(CO)[C@@H](O)[C@H](O)[C@H](O)CO` [D-fructose], for which the “acts as substrate for N. crassa XR” value at N. crassa XR was “did not act as substrates”.
As to “Nicotinamide adenine dinucleotide phosphate reduced [NADPH]”, at N. crassa XR, the “fold difference in catalytic efficiency (kcat/KM) between NADPH and NADH” value came to 100 fold; the turnover number (kcat) is 60 ± 1.67 s⁻¹.
On to `OC[C@H]1O[C@@](CO)(O[C@H]2O[C@H](CO)[C@@H](O)[C@H](O)[C@H]2O)[C@@H](O)[C@@H]1O` [sucrose], for which the “acts as substrate for N. crassa XR” value on N. crassa XR was “did not act as substrates”.

B1: N. crassa XR (Neurospora crassa OR74A) (protein)
chain: MVPAIKLNSGFDMPQVGFGLWKVDGSIASDVVYNAIKAGYRLFDGACDYGNEVECGQGVARAIKEGIVKREELFIVSKLWNTFHDGDRVEPIVRKQLADWGLEYFDLYLIHFPVALEYVDPSVRYPPGWHFDGKSEIRPSKATIQETWTAMESLVEKGLSKSIGVSNFQAQLLYDLLRYAKVRPATLQIEHHPYLVQQNLLNLAKAEGIAVTAYSSFGPASFREFNMEHAQKLQPLLEDPTIKAIGDKYNKDPAQVLLRWATQRGLAIIPKSSREATMKSNLNSLDFDLSEEDIKTISGFDRGIRFNQPTNYFSAENLWIFG
For the molecule B1, in data set [1], the Michaelis-Menten constant (Km) is given as 70 ± 10 mM and the kcat/Km was found to be 750 M⁻¹ s⁻¹. For the same molecule, in data set [2], the Michaelis-Menten constant (Km) is recorded as 34 mM, the kcat worked out at 60 ± 3.33 s⁻¹ and the specificity constant (kcat/Km) worked out at 1830 M⁻¹ s⁻¹. Besides, in data set [3], the Michaelis constant (Km) turned out to be 40 ± 10 mM, the kcat was 30 ± 1.67 s⁻¹ and the catalytic efficiency (kcat/Km) is 750 M⁻¹ s⁻¹.

B2: P. stipitus: NADPH-dependent xylose reductase from P. stipitus, literature (protein, UniProt P31867 1-318, looked up)
NAD(P)H-dependent D-xylose …: MPSIKLNSGYDMPAVGFGCWKVDVDTCSEQIYRAIKTGYRLFDGAEDYANEKLVGAGVKKAIDEGIVKREDLFLTSKLWNNYHHPDNVEKALNRTLSDLQVDYVDLFLIHFPVTFKFVPLEEKYPPGFYCGKGDNFDYEDVPILETWKALEKLVKAGKIRSIGVSNFPGALLLDLLRGATIKPSVLQVEHHPYLQQPRLIEFAQSRGIAVTAYSSFGPQSFVELNQGRALNTSPLFENETIKAIAAKHGKSPAQVLLRWSSQRGIAIIPKSNTVPRLLENKDVNSFDLDEQDFADIAKLDINLRFNDPWDWDKIPIFV
Consider B2, for which, in data set [4], the “Optimal pH” value is reported as 6.0, the kcat is 25 s⁻¹ and the Km is 42 mM.

B3: C. tenuis: xylose reductase from Candida tenuis, literature (protein, UniProt O74237 1-322, looked up)
NAD(P)H-dependent D-xylose …: MSASIPDIKLSSGHLMPSIGFGCWKLANATAGEQVYQAIKAGYRLFDGAEDYGNEKEVGDGVKRAIDEGLVKREEIFLTSKLWNNYHDPKNVETALNKTLADLKVDYVDLFLIHFPIAFKFVPIEEKYPPGFYCGDGNNFVYEDVPILETWKALEKLVAAGKIKSIGVSNFPGALLLDLLRGATIKPAVLQVEHHPYLQQPKLIEFAQKAGVTITAYSSFGPQSFVEMNQGRALNTPTLFAHDTIKAIAAKYNKTPAEVLLRWAAQRGIAVIPKSNLPERLVQNRSFNTFDLTKEDFEEIAKLDIGLRFNDPWDWDNIPIFV
For the molecule B3, the “NADH-dependent XR kcat” value in data set [4] (NADH as cofactor) was 18.33 s⁻¹. In data set [4], the “Optimal pH” value is 6.0, the catalytic constant (kcat) was 21.67 s⁻¹ and the Km was 72 mM.

B4: S. cerevisiae: xylose reductase from S. cerevisiae, literature (protein, UniProt P38715 2-327, looked up)
NADPH-dependent aldose …: SSLVTLNNGLKMPLVGLGCWKIDKKVCANQIYEAIKLGYRLFDGACDYGNEKEVGEGIRKAISEGLVSRKDIFVVSKLWNNFHHPDHVKLALKKTLSDMGLDYLDLYYIHFPIAFKYVPFEEKYPPGFYTGADDEKKGHITEAHVPIIDTYRALEECVDEGLIKSIGVSNFQGSLIQDLLRGCRIKPVALQIEHHPYLTQEHLVEFCKLHDIQVVAYSSFGPQSFIEMDLQLAKTTPTLFENDVIKKVSQNHPGSTTSQVLLRWATQRGIAVIPKSSKKERLLGNLEIEKKFTLTEQELKDISALNANIRFNDPWTWLDGKFPTFA
Turning to B4, in data set [4], the kcat was 14.3 s⁻¹ and the Michaelis constant (Km) was 13.6 mM.

In general, kcat refers to the number of substrate molecules converted per active site and unit of time at saturation. In general, Km refers to the substrate concentration at which the rate is half of its maximum. What is called kcat/Km is the turnover number divided by the Michaelis constant.
